Measurements taken from PMC5664961.

Key:
[1] = target: 6xHis-tagged KCTD17 BTB + CTD multi-domain construct (residues G20-Q220), tag kept (human); experiment: SEC; KCTD17 constructs alone, 6xHis-tagged or tag-cleaved; UV 280 nm traces; various running buffers (pH, salt)
[2] = target: KCTD17 BTB + CTD multi-domain construct (residues G20-Q220), tag cleaved (human); experiment: SEC; KCTD protein alone and mixed with Cul3 NTD at a molar ratio of 1 : 1; UV 280 nm traces; injected at 50 µM; 50 mM HEPES pH 7.5, 150 mM NaCl, 1 mM TCEP
[3] = target: human Cul3 N-terminal domain (NTD, residues M1-L388) with the engineered mutations I342R and L346D (human) (UniProt Q13618); experiment: as above
[4] = target: T1, KCTD17 BTB domain (residues G20-K131) (human); experiment: ITC; KCTD17 in the cell, titrated with Cul3 from the syringe; 15°C; 50 mM HEPES pH 7.5, 150 mM NaCl, 1 mM TCEP, 5% glycerol; single-binding site model
T1 sequence (Q8N5Z5 20-131, looked up): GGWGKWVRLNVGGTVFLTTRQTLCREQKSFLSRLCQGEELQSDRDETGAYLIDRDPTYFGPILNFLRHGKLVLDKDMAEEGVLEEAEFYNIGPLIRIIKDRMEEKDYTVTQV

[5] = target: KCTD17 BTB + CTD multi-domain construct (residues G20-Q220) (human); experiment: as above
[6] = target: T2, KCTD17 BTB domain (residues G20-K131) as used in ITC (human); experiment: ITC; KCTD17 in the cell, titrated with Cul3 NTD from the syringe; 15°C; 50 mM HEPES pH 7.5, 150 mM NaCl, 1 mM TCEP, 5% glycerol; single-binding site model
T2 sequence (Q8N5Z5 20-131, looked up): T1 sequence (Q8N5Z5 20-131, looked up)

[7] = target: human SHKBP1 BTB domain (residues G18-S120) (human) (UniProt Q8TBC3); experiment: SEC; KCTD protein alone and mixed with Cul3 NTD at a molar ratio of 1 : 1; UV 280 nm traces; injected at 50 µM; 50 mM HEPES pH 7.5, 150 mM NaCl, 1 mM TCEP
[8] = target: 6His-KCTD17 BTB domain (residues G20-K131), N-terminal hexahistidine tag kept (human); experiment: crystal structure; BTB domains alone, sitting-drop vapour diffusion at 20 and 4°C, data at 100 K
[9] = target: 6His-KCTD17 BTB domain (residues G20-K131), N-terminal hexahistidine tag kept (human); experiment: native MS; 6His-KCTD17 at 2 mg/ml exchanged into 50 mM ammonium acetate pH 6.5; electrospray, Agilent 6530 QTOF
[10] = target: 6His-KCTD17 BTB domain (residues G20-K131), N-terminal hexahistidine tag kept (human); experiment: SEC-MALS; BTB domains alone, injected at 50 µM; Shodex KW-803; 50 mM HEPES pH 7.5, 150 mM NaCl, 1 mM TCEP
[11] = target: 6His-KCTD17 BTB domain (residues G20-K131), N-terminal hexahistidine tag kept (human); experiment: crystal structure; BTB domains alone, sitting-drop vapour diffusion at 20 and 4°C, data at 100 K; remark: listed apart in the source
[12] = target: 6His-KCTD17 BTB domain (residues G20-K131), N-terminal hexahistidine tag kept (human); experiment: SAXS; BTB domains alone, ~750 µM monomer; 50 mM HEPES, 150 mM NaCl, 0.5 mM TCEP; curves compared with those calculated from the crystal structures

human Cul3 N-terminal domain (NTD, residues M1-L388) with the engineered mutations I342R and L346D (human), sequence (Q13618 1-388 I342R/L346D): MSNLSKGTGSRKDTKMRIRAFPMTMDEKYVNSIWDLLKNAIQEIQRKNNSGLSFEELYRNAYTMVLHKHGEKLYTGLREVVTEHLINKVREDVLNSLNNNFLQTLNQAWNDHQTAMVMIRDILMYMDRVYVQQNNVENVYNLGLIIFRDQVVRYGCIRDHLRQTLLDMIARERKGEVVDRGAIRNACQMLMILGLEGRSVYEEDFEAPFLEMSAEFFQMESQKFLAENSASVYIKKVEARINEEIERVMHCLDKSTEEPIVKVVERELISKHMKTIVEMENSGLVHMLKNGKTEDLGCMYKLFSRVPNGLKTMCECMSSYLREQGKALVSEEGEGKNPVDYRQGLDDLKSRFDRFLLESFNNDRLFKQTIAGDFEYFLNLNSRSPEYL

6xHis-tagged KCTD17 BTB + CTD multi-domain construct (residues G20-Q220), tag kept (domain or fragment)
stoichiometry N [1]: 60

KCTD17 BTB + CTD multi-domain construct (residues G20-Q220), tag cleaved (domain or fragment)
stoichiometry N [2]: 5
stoichiometry N (KCTD : Cul3 (5 : 5)) [3]: 1

human Cul3 N-terminal domain (NTD, residues M1-L388) with the engineered mutations I342R and L346D (from UniProt Q13618 1-388) (domain or fragment)
Ka [4]: 1.41e+08 M⁻¹
Ka [5]: 8.66e+07 M⁻¹
Kd [5]: 12 nM
stoichiometry N [5]: 2.3
Kd [6]: 7 nM

human SHKBP1 BTB domain (residues G18-S120) (from UniProt Q8TBC3 18-120) (domain or fragment)
stoichiometry N [7]: 5

6His-KCTD17 BTB domain (residues G20-K131), N-terminal hexahistidine tag kept (domain or fragment)
stoichiometry N [8]: 60
stoichiometry N [9]: 60
stoichiometry N [10]: 60
stoichiometry N [11]: 5
stoichiometry N [12]: 60
